From the DeepSol protein solubility set come the findings set out here.

The series in a line: soluble on expression in E. coli; label from the status in PepcDB or PDB records.
In the case of “MAHHHHHHMSVPLRRTVLHSLHLSRKARMGPFAGYDMPIHYQPGVVQEHLHTRQAAGLFDVSHVGFFEVWGADRHKFFEWVTPSGVTELQDGQSALTLFMNESGGVKDDCIVSKYSDHLLAVINAGCKGKIITHLKDRLAEFKGDATLVELDRAMVSLQGPKAASVMAPFVEELDRVKFMWGRRSVCVKGIDITLTRCSYSGEDGFDIIVPIQDAVQFVELLLQNPDVQLAGLGARDSLRTEAGLCLYSHELSEEVNPVAARLMWCIPKRRMAEGGFIGHERLQTFVQRAKELVPRLRMGILSVARGPVARTGMPILVGDVVVGEVTSGVPSPTLSRNIAIGYIDRAKARAGETVELEVRGKRLPGEVTLPRFVPQRYYKG”, the “soluble on expression in E. coli” value is given as “not soluble”.

Consider “MGSSHHHHHHGGTGENLYFQGGSGRDREVVECLLGMEQWLRELNRPLASAGVGGSVDVGASSSLLSGFPPCMEGDALRSAYRSALSELRLLVLGVLNTMPWWRVVETVAGNPPAAQTGGARTASAGGGDNSSSEAGAARVAARHAGGWDRSAAALHVITRWHARLQIAFERVCLVLIDQSQQTVRGVLEVLLKPCQLRPPVRDGARRSIPSDSFIRVLNAVATKYSPVYVVELLEGCIADFMPRRRWAERRHHVACTAVLLYLALEGHTPAYHPQLGNSYSLQRAVRLLTSLRSRRADGRCALSGSPWLLPHATGSYSLTLP”, for which the “soluble on expression in E. coli” value is listed as “not soluble”.

As for “MAHHHHHHMLPILLSTLEKDESATLRERAGMALELLVREAQTQRLLLGGGSSEDAPLSTLAGKQTAPTPHLAAILASLRDESDEVVVAALRVVLACHMAHNAFSVTAALVQGGLIPVLIDLIQSTNTMTQMVACCATRQLFQVKEAHVELLKLGIVATLTKAIIKAEAVALVAEAAEVASLIAEYAQGRRDAVACGTLASLLPHLHNANLTLRVAVYSAAAQITVLEAAKVQAMEVGYPEQLVGELAREDERDVLMHMLRLIYNLAEWPTARVTLRECLPRIAELLQIAEGDEGVMFALSQADRILKKKVFPV”, the “soluble on expression in E. coli” value is recorded as “not soluble”.

Regarding “GIDPFTKANSEACRDGLRAVMECRNVTHLLQQELTEAQKGFQDVEAQAATCNHTVMALMASLDAEKAQGQKKVEELEGEITTLNHKLQDASAEVERLRRENQVLSVRIADKK”, the “soluble on expression in E. coli” value was “soluble”.

As for “MPPKIAEVIQHDVCAACGACEAVCPIGAVTVKKAAEIRDPNDLSLYEKGAAFQVCEGCLTCSRICPVVDGFIENELLNVRKFFGAKSKDNAGSQDGGVTSGILKALFNKGEIDCAVGITRNENWEPEVVLLTSAEDVERTRGTKYTSDPVVAALREAFEKYDRIAVVGVPCQAHAARLIRENVNEKIVLIIGLLCMESFHHDVMLDKIIPEIMKVNVRDIVKMEFTKGKFWVYTKDGEVHSVPIKDIAKYARNPCHHCCDYTSVFADISVGSVGAPDGWNSVFIRTEIGEKYFDMVRDEMEIMEDPKPGLELVGKLIEMKRKGNAEHFQEVCKEFSFETGIRSETVLEHHHHHH”, the “soluble on expression in E. coli” value is listed as “soluble”.

As for “MGSDKIHHHHHHMESKSAVQLYLELLKKTILFEIWLEYEAYLPASLHISKELEFEPVTVPLPLFIKQYAENHNLKIVKPNVSKSERHDGMDWPRAAHSMIGRERMNQLQEAMETVVRENIEGDFIETGVWRGGSCIFMNGFLQANNITDRNVWVADSFEGLPAPNLEQYPKDYGDYLHTFDYLRVSLEQVQENFKKYDLLNDQVKFLKGWFKDTLPTAPIAAIAIARLDGDMYESTMDGLVNLYDKVSKGGYIIIDDYGLPPCAEAVTDFRNHRNLKAPITKIDVFGVYWRKE”, the “soluble on expression in E. coli” value is listed as “not soluble”.

On to “MVASESILQALQTVIDPNTGKDLVTTRAIRNLEVNGADVTFDAQLGYPAKSQIPALRRALIAAARGVAGVDNVSVNMQSVIETHAVPRGIALLPNVKNVIAVASGKGGVGKSTTAVNLALALAAEGARVGLLDADIYGPSQAQMMGIEGRPQSEDGKTMEPLENYGVQVMSIGFLVDADEAMIWRGPMAVQALEQLLRQTNWKNLDYLVIDMPPGTGDIHLTLSQKVPVTGAVIVTTPQDIALLDARKGVKMFEKVGVPIVGVVENMAVHVCSQCGHAEHIFGQGGGQRMAQDYGLAYLGALPLDINIRQQADGGRPSVVADPDGEVAGLYKDVARQVAVAVAAMGKDYSSKFSSISISRAPAGGAAALEHHHHHH”, for which the “soluble on expression in E. coli” value is given as “soluble”.

As to “LTTHNFARKTFLKLAFCDICQKFLLNGFRCQTCGYKFHEHCSTKVPTMCVDW”, the “soluble on expression in E. coli” value is “soluble”.

Regarding “MEKEGFARLFHNFDNVIEPKLCSTSGSVPSYLKGTMLRNGPGMFEIGDTKYQHWFDGMGFIQRYHFEDGKMYYSARYLESENYKKNMEAQRIVTGSFGTASFPDPCKSIFSRFFSSFVQSEGIHDNANVAFAPVGDGLYACTETPNMHRVDLDSLDTLEPVDFSKYVALHTCTAHQLFDENGDVYNIGSRFGPDAAHVFTVTKNPKNLQSDSDRSWEHTTKIGEIRCSETFYPTYMHSFGMSENYLIMFESPIRIDIKKFIMKRFITTTFRDCMKWHADKDVKIFILNKKTGEQVPLKLKMAPFFTFHHANTFERDGCLVVDYCRIEQAGNFDALLIENMKTGNFQNDALFLPYLTRVIIPLSIPDGAQPGDDLLKPLGWAKGCSAIFQDDGKIRLKEKRVCDISMEFPRYHWEKINMKPYNYVYGSSVLGAQKSETLPGIVKADLENGDHKVWRRENDKQICGEPIFVPNPEGVREDDGILIVPVMTISDGQRPFVLILEAKNLTEIARYTIPEARIPLGFHAFYQGRT”, the “soluble on expression in E. coli” value is “not soluble”.

As for “MRKRLSAPELRLSLTKGPGNDGASPTQSAPSSPDGSSDLEIDELETPSDSEQLDSGHEFEWEDELPRAEGLGTSETAERLGRGCMWDVTGEDGHHWRVFRMGPREQRVDMTVIEPYKKVLSHGGYHGDGLNAVILFASCYLPRSSIPNYTYVMEHLFRYMVGTLELLVAENYLLVHLSGGTSRAQVPPLSWIRQCYRTLDRRLRKNLRALVVVHATWYVKAFLALLRPFISSKFTRKIRFLDSLGELAQLISLDQVHIPEAVRQLDRDLHGSGGT”, the “soluble on expression in E. coli” value is “not soluble”.

As to “MGSDKIHHHHHHMSRDAPIKADKDYSQILKEEFPKIDSLAQNDCNSALDQLLVLEKKTRQASDLASSKEVLAKIVDLLASRNKWDDLNEQLTLLSKKHGQLKLSIQYMIQKVMEYLKSSKSLDLNTRISVIETIRVVTENKIFVEVERARVTKDLVEIKKEEGKIDEAADILCELQVETYGSMEMSEKIQFILEQMELSILKGDYSQATVLSRKILKKTFKNPKYESLKLEYYNLLVKISLHKREYLEVAQYLQEIYQTDAIKSDEAKWKPVLSHIVYFLVLSPYGNLQNDLIHKIQNDNNLKKLESQESLVKLFTTNELMRWPIVQKTYEPVLNEDDLAFGGEANKHHWEDLQKRVIEHNLRVISEYYSRITLLRLNELLDLTESQTETYISDLVNQGIIYAKVNRPAKIVNFEKPKNSSQLLNEWSHNVDELLEHIETIGHLITKEEIMHGLQAK”, the “soluble on expression in E. coli” value is on record as “not soluble”.

Turning to “MCSKQSANQQISYRQTAEATLDKGMDNQPEAPYWFPKQLLKWQLSKDKAAKYNTASVPLAKRIDKWQLPTVNKTQDPKMKVVALSIMNSSTSGNAPRGINTFDANVFSNWQYIDQLVYWGGSAGEGLIVPPTADVIDSAHKNGVPVLGTVFFPQVVSGGKLKWLNDFLKQDADGHFPMADKLVAVAKAYGFDGWFINQETDPEVKSFDSASTGKTATSSTSNGLSKKHAQLMQQLIKEYKQKAGSKLDLMWYDSMTKDGKMDWQNALTKENQSYLVDANMKPVADSMFLNFWWTKKRLASQELLKKSHERAEKLGISPYNLFAGIDVQADGTATPVRWNLFANKQHVPYTSLGLYAPDWTHASSDTVDEFQAKEGALWVNDQNDPSRSIPSTTSTHWPGVSTYAVEQSAITKQPFVTNFSLGNGYNYFIKLEHHHHHH”, the “soluble on expression in E. coli” value is listed as “not soluble”.

Consider “GSHMDDDLVDAEGNLVENGGTYYLLPHIWAHGGGIETAKTGNEPCPLTVVRSPNEVSKGEPIRISSQYRSLFIPRGSLVALGFANPPSCAASPWWTVVDSPQGPAVKLSQQKLPEKDILVFKFEKVSHSNIHVYKLLYCQHDEEDVKCDQYIGIHRDRNGNRRLVVTEENPLELVLLKAKSETASSH”, for which the “soluble on expression in E. coli” value is recorded as “soluble”.

On to “MSIKKSPVYNVIAVPVEKVQANDYNPNVVAPPEMRLLELSIWEDGFTMPCVCYYDKEKDVYILVDGFHRYSVLKTSKRIFQRENGMLPIVVIEKDLSNRMSSTIRHNRARGTHNIELMCHIVAELDKAGMSDQWIMKNIGMDRDELLRLKQISGLADLFANRDFSVPEDDQPGNVDKKPTR”, for which the “soluble on expression in E. coli” value was “not soluble”.
